Data taken from patent publication US20230034906A1 (TRINOMAB BIOTECH, published 2023).
Positions count from the first letter of the chain named.

What was measured:
[1] = molecular target: T1, homologous sequence of gB glycoprotein of 56 virus strains (gB_Con. Strain) (human cytomegalovirus (homologous …, UniProt P06473 25-699)); test: ELISA, HEK293 culture supernatant on gB
T1 construct: C-terminal tags are part of the entry
T1 chain: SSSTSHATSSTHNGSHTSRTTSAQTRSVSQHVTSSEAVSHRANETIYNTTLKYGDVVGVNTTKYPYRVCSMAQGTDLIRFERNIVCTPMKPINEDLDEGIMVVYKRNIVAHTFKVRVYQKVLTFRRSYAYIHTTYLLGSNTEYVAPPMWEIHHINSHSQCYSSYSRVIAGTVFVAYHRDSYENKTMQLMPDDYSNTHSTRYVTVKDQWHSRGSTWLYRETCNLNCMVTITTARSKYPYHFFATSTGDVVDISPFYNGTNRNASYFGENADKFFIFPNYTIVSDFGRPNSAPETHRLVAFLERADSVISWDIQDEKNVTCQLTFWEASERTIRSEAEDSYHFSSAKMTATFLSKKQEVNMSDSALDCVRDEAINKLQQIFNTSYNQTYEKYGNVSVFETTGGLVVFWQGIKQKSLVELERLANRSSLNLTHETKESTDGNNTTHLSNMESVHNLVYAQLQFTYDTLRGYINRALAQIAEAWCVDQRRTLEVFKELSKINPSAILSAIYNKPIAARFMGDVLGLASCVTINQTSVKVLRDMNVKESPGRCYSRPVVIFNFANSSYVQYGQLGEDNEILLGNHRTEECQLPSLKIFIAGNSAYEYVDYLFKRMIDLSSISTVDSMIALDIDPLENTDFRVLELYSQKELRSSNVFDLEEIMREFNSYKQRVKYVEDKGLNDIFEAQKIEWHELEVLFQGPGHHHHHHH

[2] = molecular target: T2, gB_Towne protein with N281 mutated into glutamine (human cytomegalovirus, strain Towne, UniProt F5HB53 25-700); test: indirect ELISA, antibody titrated on gB glycoprotein mutant
T2 chain: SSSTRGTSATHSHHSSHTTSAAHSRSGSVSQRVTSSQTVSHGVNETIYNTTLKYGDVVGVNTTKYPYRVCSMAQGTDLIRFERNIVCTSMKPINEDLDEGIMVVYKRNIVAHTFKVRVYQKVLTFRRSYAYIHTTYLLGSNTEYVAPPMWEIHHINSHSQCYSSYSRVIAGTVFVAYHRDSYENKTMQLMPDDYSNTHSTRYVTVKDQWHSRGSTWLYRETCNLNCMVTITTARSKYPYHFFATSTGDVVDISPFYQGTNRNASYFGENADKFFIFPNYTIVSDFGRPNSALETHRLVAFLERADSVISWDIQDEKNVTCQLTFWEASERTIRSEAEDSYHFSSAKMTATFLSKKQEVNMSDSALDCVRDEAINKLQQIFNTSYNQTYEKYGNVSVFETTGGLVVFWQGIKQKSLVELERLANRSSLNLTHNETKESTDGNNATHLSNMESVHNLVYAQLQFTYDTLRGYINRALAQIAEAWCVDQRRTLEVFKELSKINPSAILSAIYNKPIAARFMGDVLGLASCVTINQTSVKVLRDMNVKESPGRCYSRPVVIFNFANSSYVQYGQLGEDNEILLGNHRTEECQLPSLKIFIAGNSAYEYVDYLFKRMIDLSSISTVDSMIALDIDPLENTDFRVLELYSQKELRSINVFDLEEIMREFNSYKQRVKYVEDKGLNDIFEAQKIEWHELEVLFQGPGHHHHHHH

[3] = molecular target: T3, gB_Towne protein with N383 mutated into glutamine (human cytomegalovirus, strain Towne, UniProt F5HB53 25-700); test: as above
T3 chain: T2 chain with Q257N, N359Q

[4] = molecular target: T4, gB_Towne protein with N409 mutated into glutamine (human cytomegalovirus, strain Towne, UniProt F5HB53 25-700); test: as above
T4 chain: T2 chain with Q257N, N385Q

Measured: binding result

B1: TRN1019 (antibody, V domains shown)
VH: QVQLVQSGAEVKKPGESLKISCKGSGYTFTNYWIGWVRQMPGAGLEWMAIIFPRDSYSAYSPSFQGRVTISVDKSISTAYLHWSSLEASDTAVYYCAIYNDLRSGNSWGQGTPLIVSS
VL: DIQMTQSPSSLSASVGDRVTITCRASQSITKYLNWYQQKPGRAPKLLIHTTSTLQSGVPSRFSGSGSGTDFTLTISSLQLEDFGTYYCQQSFSTLWTFGQGTKLDIKR
notes: Fully human antibody; kappa light chain
binds: all assays above
